From publication PMC5959768 (Cell, 2018)

Target: Gβ1/Gγ2(C68S) complex (human, UniProt P62873 1-340; P59768 1-71, C68S)
Assay: SEC

Chain of Gβ1/Gγ2(C68S) complex (P62873 whole entry, chain 1 of 2): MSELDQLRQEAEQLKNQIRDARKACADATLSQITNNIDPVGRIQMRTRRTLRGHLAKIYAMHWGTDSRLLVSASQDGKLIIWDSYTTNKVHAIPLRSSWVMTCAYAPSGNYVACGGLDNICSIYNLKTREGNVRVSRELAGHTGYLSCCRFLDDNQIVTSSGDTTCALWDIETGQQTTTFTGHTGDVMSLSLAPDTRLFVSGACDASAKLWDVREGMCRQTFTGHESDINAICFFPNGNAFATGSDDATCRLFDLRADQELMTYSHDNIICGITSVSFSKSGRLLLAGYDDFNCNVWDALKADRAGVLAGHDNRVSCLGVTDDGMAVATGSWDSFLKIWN
Chain of Gβ1/Gγ2(C68S) complex (P59768 whole entry C68S, chain 2 of 2): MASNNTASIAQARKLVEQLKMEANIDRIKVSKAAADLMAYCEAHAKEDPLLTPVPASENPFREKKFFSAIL

B1: Wild type human Gαs (residues 7-380 of the short isoform) (natural protein, UniProt P63092-2 7-380, looked up)
chain: SKTEDQRNEEKAQREANKKIEKQLQKDKQVYRATHRLLLLGAGESGKSTIVKQMRILHVNGFNGDSEKATKVQDIKNNLKEAIETIVAAMSNLVPPVELANPENQFRVDYILSVMNVPDFDFPPEFYEHAKALWEDEGVRACYERSNEYQLIDCAQYFLDKIDVIKQADYVPSDQDLLRCRVLTSGIFETKFQVDKVNFHMFDVGGQRDERRKWIQCFNDVTAIIFVVASSSYNMVIREDNQTNRLQEALNLFKSIWNNRWLRTISVILFLNKQDLLAEKVLAGKSKIEDYFPEFARYTTPEDATPEPGEDPRVTRAKYFIRDEFLRISTASGDGRHYCYPHFTCAVDTENIRRVFNDCRDIIQRMHLRQYELL
binding result: binds
